Data as given in article PMC5921052.

Target: Hsp90 yeast homologue (Hsc82) (yeast) (UniProt P15108)
UniProt P15108, sequence (P15108 whole entry): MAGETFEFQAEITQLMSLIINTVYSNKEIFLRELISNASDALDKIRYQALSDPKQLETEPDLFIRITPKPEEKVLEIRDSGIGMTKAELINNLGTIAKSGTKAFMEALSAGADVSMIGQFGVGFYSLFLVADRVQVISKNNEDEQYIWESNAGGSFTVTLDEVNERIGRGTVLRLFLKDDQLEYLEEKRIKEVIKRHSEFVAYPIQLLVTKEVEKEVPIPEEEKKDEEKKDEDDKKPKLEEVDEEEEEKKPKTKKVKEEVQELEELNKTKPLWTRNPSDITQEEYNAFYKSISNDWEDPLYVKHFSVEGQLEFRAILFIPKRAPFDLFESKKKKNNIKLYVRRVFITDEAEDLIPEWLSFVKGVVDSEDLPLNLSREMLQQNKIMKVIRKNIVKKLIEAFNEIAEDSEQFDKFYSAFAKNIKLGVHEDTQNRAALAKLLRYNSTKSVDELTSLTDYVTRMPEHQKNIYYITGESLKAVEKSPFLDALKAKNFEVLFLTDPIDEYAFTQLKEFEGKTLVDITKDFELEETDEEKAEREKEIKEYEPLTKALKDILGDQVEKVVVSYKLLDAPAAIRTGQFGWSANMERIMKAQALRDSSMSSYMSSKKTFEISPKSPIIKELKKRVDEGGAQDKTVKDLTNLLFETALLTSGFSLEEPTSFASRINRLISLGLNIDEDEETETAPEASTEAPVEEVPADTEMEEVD

Work on “model client protein Δ131Δ (domain or fragment)” yielded an other of 1.8 fold.
